Consider 2 proteins from article PMC3845908 (Journal of the American Chemical Society, 2012).

Series [1] concerns the molecule itself. As to the kind of experiment: pulsed double electron-electron resonance.
Series [2] concerns the molecule itself. As to the kind of experiment: pulsed double electron-electron resonance. This is another data set of the same source.

Where two headings read alike, the source gives them in different places.

B1: Streptomyces lividans KcsA R64C, MTSL spin-labelled (natural protein, UniProt P0A334 1-160, looked up)
chain: MPPMLSGLLARLVKLLLGRHGSALHWRAAGAATVLLVIVLLAGSYLAVLAERGAPGAQLITYPCALWWSVETATTVGYGDLYPVTLWGRLVAVVVMVAGITSFGLVTAALATWFVGREQERRGHFVRHSEKAAEEAYTRTTRALHERFDRLERMLDDNRR
modifications: MTSL spin label on the cysteine at 64
Regarding B1, the binding result in series [1] is listed as “binds”.

B2: Streptomyces lividans KcsA F114C full length, MTSL spin-labelled (natural protein, UniProt P0A334 1-160, looked up)
chain: MPPMLSGLLARLVKLLLGRHGSALHWRAAGAATVLLVIVLLAGSYLAVLAERGAPGAQLITYPRALWWSVETATTVGYGDLYPVTLWGRLVAVVVMVAGITSFGLVTAALATWCVGREQERRGHFVRHSEKAAEEAYTRTTRALHERFDRLERMLDDNRR
modifications: MTSL spin label on the cysteine at 114
For the protein B2, the binding result in series [2] is “binds”.
